Values quoted from earlier work as cited in publication PMC5372734.
Read-outs that look alike come from different tables or passages of the source.

Columns and labels:
[1] = target: Factor XIIa (Homo sapiens) (UniProt P00748)
[2] = target: Factor XIIa (Homo sapiens) (UniProt P00748); remark: listed apart in the source

Sequence of UniProt P00748 (P00748 whole entry, looked up): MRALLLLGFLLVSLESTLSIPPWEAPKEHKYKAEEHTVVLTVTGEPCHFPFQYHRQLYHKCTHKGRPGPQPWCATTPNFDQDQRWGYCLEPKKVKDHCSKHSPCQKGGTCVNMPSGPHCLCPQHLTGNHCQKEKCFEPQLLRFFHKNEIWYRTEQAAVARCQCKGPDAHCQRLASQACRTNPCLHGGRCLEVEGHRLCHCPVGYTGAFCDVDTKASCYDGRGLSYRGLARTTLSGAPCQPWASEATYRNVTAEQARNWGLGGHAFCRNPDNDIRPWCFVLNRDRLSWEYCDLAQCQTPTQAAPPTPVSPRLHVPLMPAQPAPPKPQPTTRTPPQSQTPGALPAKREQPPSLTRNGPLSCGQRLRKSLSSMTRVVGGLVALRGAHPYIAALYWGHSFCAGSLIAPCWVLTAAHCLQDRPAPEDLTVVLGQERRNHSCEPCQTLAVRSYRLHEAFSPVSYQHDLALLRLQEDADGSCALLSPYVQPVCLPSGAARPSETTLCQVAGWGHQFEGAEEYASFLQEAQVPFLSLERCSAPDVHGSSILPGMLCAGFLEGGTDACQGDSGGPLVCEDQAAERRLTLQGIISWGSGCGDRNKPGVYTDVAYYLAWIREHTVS

## Histidine-rich glycoprotein (from UniProt P04196)
[1]
  Kd: 0.009 nM
[2]
  Kd: 1.6 nM
